The values below are quoted from earlier work in PMC4115291 (Nature communications, 2014).

This data set has as its system mice.

With β-Diguetoxin-Dc1a, the “effect in mice, injected intracerebroventricularly (in words)” value (1.0 mg/kg intracerebroventricularly) is “no effect”. For the same substance, the “effect in mice, injected intraperitoneally (in words)” value (4.1 mg/kg intraperitoneally) is on record as “no effect”.
